In paper PMC4273445 (eLife, 2014):

Assays:
Assay in all cases: SPR
[1] = biological target: fHbp V3.28 His (at V1 His248) to Ala (N. meningitidis)
[2] = biological target: fHbp V3.28 Asn (at V1 Asn108) to Ala (N. meningitidis)
[3] = biological target: fHbp V2.21 Ile (at V1 Ile273) to Ala (N. meningitidis)
[4] = biological target: fHbp V2.21 Ser (at V1 Ser302) to Ala (N. meningitidis)
[5] = biological target: fHbp V2.21 Arg (at V1 Arg106) to Ala (N. meningitidis)
[6] = biological target: fHbp 1.P78 (N. meningitidis) (UniProt E6MV22)
[7] = biological target: fHbp V3.28 Gln (at V1 Lys107) to Ala (N. meningitidis)
[8] = biological target: fHbp V3.28 Lys (at V1 Lys92) to Ala (N. meningitidis)
[9] = biological target: fHbp V1.1 Phe194 to Ala (N. meningitidis)
[10] = biological target: fHbp 3.P45 (N. meningitidis) (UniProt E6MV22)
[11] = biological target: fHbp V3.28 Phe (at V1 Phe194) to Ala (N. meningitidis)
[12] = biological target: fHbp V3.28 Asn (at V1 Gln180) to Ala (N. meningitidis)
[13] = biological target: fHbp 1.P74 (N. meningitidis) (UniProt E6MV22)
[14] = biological target: fHbp V1.1 Phe174 to Ala (N. meningitidis)
[15] = biological target: fHbp V3.28 Lys (at V1 Lys268) to Ala (N. meningitidis)
[16] = biological target: fHbp V1.1 Lys306 to Ala (N. meningitidis)
[17] = biological target: fHbp V1.1 Ser286 to Ala (N. meningitidis)
[18] = biological target: fHbp 2.P22 (N. meningitidis) (UniProt E6MV22)
[19] = biological target: fHbp V3.28 Glu (at V1 Gly267) to Ala (N. meningitidis)
[20] = biological target: fHbp V1.1 His184 to Ala (N. meningitidis)
[21] = biological target: fHbp V1.1 Ile147 to Ala (N. meningitidis)
[22] = biological target: fHbp V3.28 Ile (at V1 Ile154) to Ala (N. meningitidis)
[23] = biological target: fHbp V1.1 Lys107 to Ala (N. meningitidis)
[24] = biological target: fHbp V2.21 Ser (at V1 Ser104) to Ala (N. meningitidis)
[25] = biological target: fHbp V2.21 Lys (at V1 Lys264) to Ala (N. meningitidis)
[26] = biological target: fHbp V1.1 Leu289 to Ala (N. meningitidis)
[27] = biological target: fHbp V3.28 Ala (at V1 Pro265) to Pro (N. meningitidis)
[28] = biological target: fHbp V2.21 Leu (at V1 Leu156) to Ala (N. meningitidis)
[29] = biological target: fHbp V1.1 Asp266 to Ala (N. meningitidis)
[30] = biological target: fHbp V1.1 Ser302 to Ala (N. meningitidis)
[31] = biological target: fHbp 1.P13 (N. meningitidis) (UniProt E6MV22)
[32] = biological target: fHbp V1.1 Gln193 to Ala (N. meningitidis)
[33] = biological target: fHbp V2.21 Ile (at V1 Ile147) to Ala (N. meningitidis)
[34] = biological target: fHbp V3.28 Gln (at V1 Lys191) to Ala (N. meningitidis)
[35] = biological target: fHbp V1.1 Leu156 to Ala (N. meningitidis)
[36] = biological target: fHbp V3.28 Glu (at V1 Glu283) to Ala (N. meningitidis)
[37] = biological target: fHbp V2.21 Asp (at V1 Asp150) to Ala (N. meningitidis)
[38] = biological target: fHbp V2.21 Glu (at V1 Glu109) to Ala (N. meningitidis)
[39] = biological target: fHbp V3.28 His (at V1 His203) to Ala (N. meningitidis)
[40] = biological target: fHbp V3.28 Lys (at V1 His184) to Ala (N. meningitidis)
[41] = biological target: fHbp V3.28 Thr (at V1 Ser185) to Ala (N. meningitidis)
[42] = biological target: fHbp V3.28 Asp (at V1 Glu183) to Ala (N. meningitidis)
[43] = biological target: fHbp V1.1 Ser274 to Ala (N. meningitidis)
[44] = biological target: fHbp V3.28 Ser (at V1 Ser302) to Ala (N. meningitidis)
[45] = biological target: fHbp V2.21 His (at V1 His248) to Ala (N. meningitidis)
[46] = biological target: fHbp V3.28 Ile (at V1 Ile273) to Ala (N. meningitidis)
[47] = biological target: fHbp 3.P84 (N. meningitidis) (UniProt E6MV22)
[48] = biological target: fHbp V1.1 Ser104 to Ala (N. meningitidis)

CFH67, CCP domains 6 and 7 of complement factor H, sequence (P08603 321-443): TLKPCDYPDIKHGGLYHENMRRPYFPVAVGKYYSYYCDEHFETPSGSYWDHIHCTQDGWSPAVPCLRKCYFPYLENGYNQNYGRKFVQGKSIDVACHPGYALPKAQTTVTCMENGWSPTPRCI

Substance: CFHR3_(12), the first two (N-terminal) CCP domains of complement factor H-related 3 (from UniProt Q02985 19-330) (domain or fragment)
- Kd [1]: 3.61 nM
- Kd [2]: 3.21 nM
- Kd [3]: 0.605 nM
- Kd [4]: 6.3 nM
- Kd [5]: 5.26 nM
- Kd [6]: 80 nM
- Kd [7]: 25.3 nM
- Kd [8]: 3.39 nM
- Kd [9]: 160 nM
- Kd [10]: 0.779 nM
- Kd [11]: 5.15 nM
- Kd [12]: 7.86 nM
- Kd [13]: 56.9 nM
- Kd [14]: 338 nM
- Kd [15]: 3.2 nM
- Kd [16]: 57.7 nM
- Kd [17]: 93.6 nM
- Kd [18]: 2.58 nM
- Kd [19]: 2.57 nM
- Kd [20]: 118 nM
- Kd [21]: 174 nM
- Kd [22]: 13.7 nM
- Kd [23]: 174 nM
- Kd [24]: 4.91 nM
- Kd [25]: 30.2 nM
- Kd [26]: 18.4 nM
- Kd [27]: 4.82 nM
- Kd [28]: 7.54 nM
- Kd [29]: 82.6 nM
- Kd [30]: 17.2 nM
- Kd [31]: 54.3 nM
- Kd [32]: 158 nM
- Kd [33]: 8.22 nM
- Kd [34]: 3.05 nM
- Kd [35]: 311 nM
- Kd [36]: 20.6 nM
- Kd [37]: 3.64 nM
- Kd [38]: 4.62 nM
- Kd [39]: 3.47 nM
- Kd [40]: 3.05 nM
- Kd [41]: 3.76 nM
- Kd [42]: 4.88 nM
- Kd [43]: 43.5 nM
- Kd [44]: 7.64 nM
- Kd [45]: 3.56 nM
- Kd [46]: 0.292 nM
- Kd [47]: 6.08 nM
- Kd [48]: 382 nM

Substance: CFH67, CCP domains 6 and 7 of complement factor H (from UniProt P08603 321-443) (domain or fragment)
- Kd [1]: 2.97 nM
- Kd [2]: 3.71 nM
- Kd [3]: 0.231 nM
- Kd [4]: 8.39 nM
- Kd [5]: 5.99 nM
- Kd [6]: 10.5 nM
- Kd [7]: 46.4 nM
- Kd [8]: 2.67 nM
- Kd [9]: 5.04 nM
- Kd [10]: 0.227 nM
- Kd [11]: 4.25 nM
- Kd [12]: 8.49 nM
- Kd [13]: 5.14 nM
- Kd [14]: 3.21 nM
- Kd [15]: 2.61 nM
- Kd [16]: 2.94 nM
- Kd [17]: 11.3 nM
- Kd [18]: 2.13 nM
- Kd [19]: 1.45 nM
- Kd [20]: 9.27 nM
- Kd [21]: 17.3 nM
- Kd [22]: 14.3 nM
- Kd [23]: 9.59 nM
- Kd [24]: 2.52 nM
- Kd [25]: 16.7 nM
- Kd [26]: 1.44 nM
- Kd [27]: 3.76 nM
- Kd [28]: 4.7 nM
- Kd [29]: 3.34 nM
- Kd [30]: 0.592 nM
- Kd [31]: 10.7 nM
- Kd [32]: 6.66 nM
- Kd [33]: 3.58 nM
- Kd [34]: 2.43 nM
- Kd [35]: 60.5 nM
- Kd [36]: 11.9 nM
- Kd [37]: 3.24 nM
- Kd [38]: 2.34 nM
- Kd [39]: 2.33 nM
- Kd [40]: 2.76 nM
- Kd [41]: 4.42 nM
- Kd [42]: 5.96 nM
- Kd [43]: 11.3 nM
- Kd [44]: 6.18 nM
- Kd [45]: 1.92 nM
- Kd [46]: 0.201 nM
- Kd [47]: 2.64 nM
- Kd [48]: 9.78 nM
